Laboratory results as given in PMC2888680.

Experiments:
[1] = limited in vitro trypsin proteolysis of purified protein; conditions: glycan lost; control: wild-type mNEU1
[2] = anti-NEU1 immunoblot, Phoenix-A lysates; conditions: glycan lost; control: wild-type mNEU1
[3] = 4-MU-NANA activity, Phoenix-A lysates, PPCA coexpressed; conditions: glycan lost; control: wild-type mNEU1
[4] = anti-NEU1 immunoblot, transduced NEU1-deficient fibroblasts; conditions: glycan lost; control: wild-type mNEU1
[5] = 4-MU-NANA activity, neu1-/- fibroblasts, PPCA cotransduced; conditions: glycan lost; control: wild-type mNEU1 coexpressed with PPCA
[6] = 4-MU-NANA activity, neu1-/- fibroblasts, endogenous PPCA only; conditions: glycan lost; control: wild-type mNEU1

murine NEU1 (mNEU1): N180D (mut1)
stability_or_folding [1]: decreases | expression_or_secretion [2]: decreases

murine NEU1 (mNEU1): N337D (mut2)
enzymatic_activity, percent_of_wt [3]: decreases | stability_or_folding [1]: no change | expression_or_secretion [4]: decreases | expression_or_secretion [2]: no change | enzymatic_activity [5]: no change

murine NEU1 (mNEU1): N346D (mut3)
enzymatic_activity, percent_of_wt [6]: decreases | enzymatic_activity, percent_of_wt [3]: decreases | stability_or_folding [1]: no change | expression_or_secretion [4]: decreases | expression_or_secretion [2]: no change

murine NEU1 (mNEU1): N372D (mut4)
enzymatic_activity, percent_of_wt [6]: no change | enzymatic_activity, percent_of_wt [3]: no change | stability_or_folding [1]: no change | expression_or_secretion [4]: no change | expression_or_secretion [2]: no change | enzymatic_activity [5]: no change
